Source: publication PMC3942355, “Unraveling Regulation of the Small Heat Shock Proteins by the Heat Shock Factor HvHsfB2c in Barley: Its Implications in Drought Stress Response and Seed Development”

Biological target: HvHsfB2c (Hordeum vulgare (barley) cv. Golden …, UniProt F4ZC69 1-362)
Assay: EMSA; 100 ng poly(dI-dC); EMSA as described previously (ref 24), with 100 ng poly(dI-dC); buffer, salt, pH and temperature not given
Conditions: protein: ivt; chain copies: 3; 5' overhang 4 nt (TCGA) on both strands, 40 bp duplex

Chain of HvHsfB2c (F4ZC69 entry or part of it): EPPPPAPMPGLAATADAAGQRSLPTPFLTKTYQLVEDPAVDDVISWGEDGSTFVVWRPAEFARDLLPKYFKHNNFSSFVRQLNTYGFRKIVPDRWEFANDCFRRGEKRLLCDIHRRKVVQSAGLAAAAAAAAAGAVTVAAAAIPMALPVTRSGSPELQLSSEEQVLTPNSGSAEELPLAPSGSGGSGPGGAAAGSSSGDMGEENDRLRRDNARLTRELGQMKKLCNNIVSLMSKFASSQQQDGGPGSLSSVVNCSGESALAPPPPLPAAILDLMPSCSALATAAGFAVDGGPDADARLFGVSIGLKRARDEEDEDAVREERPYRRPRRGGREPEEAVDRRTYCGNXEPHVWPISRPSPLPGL

B1: HSE-box fragment of HvsHsp17.5-CI promoter (HSE-1/HSE-2) (dsDNA)
DNA 1: TCGAACAACCCAAAATCCAAAAAATTCCACAACCCCAAAAAGGC
DNA 2: TCGAGCCTTTTTGGGGTTGTGGAATTTTTTGGATTTTGGGTTGT
Does B1 bind?
Result: binds
